In patent US20070048801A1:

Target: CXCR3 from Mus musculus (NCBI accession no. NP_034040) (Mus musculus) (UniProt O88410)
Assay: cell-based or functional assay

Chain of UniProt O88410 (O88410 whole entry): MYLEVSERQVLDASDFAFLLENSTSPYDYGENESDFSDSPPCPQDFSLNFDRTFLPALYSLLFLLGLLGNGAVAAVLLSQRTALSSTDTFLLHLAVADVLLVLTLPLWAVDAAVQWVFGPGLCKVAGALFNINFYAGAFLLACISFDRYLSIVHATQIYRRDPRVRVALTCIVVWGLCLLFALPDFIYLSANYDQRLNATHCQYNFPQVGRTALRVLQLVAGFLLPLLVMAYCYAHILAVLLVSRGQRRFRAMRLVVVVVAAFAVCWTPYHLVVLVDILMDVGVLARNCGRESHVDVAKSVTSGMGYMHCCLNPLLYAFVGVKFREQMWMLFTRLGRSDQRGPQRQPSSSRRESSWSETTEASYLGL

Substance: PT-gliadin (gliadin digested with pepsin and trypsin) (peptide)
- TEER, WT mouse intestinal segments (n=10), baseline: 24.1
- TEER, WT mouse intestinal segments (n=10), post-gliadin exposure: 14.7
- zonulin release, WT mouse intestinal segments (n=10), baseline (ng/mg protein): 0.33
- zonulin release, WT mouse intestinal segments (n=10), post-gliadin exposure (ng/mg protein): 0.61
